Test results taken from IntAct's records for PubMed 21223507.

B1: Eukaryotic translation initiation factor 2-alpha kinase 1 (Mus musculus), Q9Z2R9 (parent)
chain: MLGGSSVDGERDTDDDAAGAVAAPPAIDFPAEVSDPKYDESDVPAELQVLKEPLQQPTFPFLVANQLLLVSLLEHLSHVHEPNPLHSKQVFKLLCQTFIKMGLLSSFTCSDEFSSLRLHHNRAITHLMRSAKERVRQDPCQDNSYMQKIRSREIAFEAQTSRYLNEFEELAILGKGGYGRVYKVRNKLDGQHYAIKKILIKSATKTDCMKVLREVKVLAGLQHPNIVGYHTAWIEHVHVVQPQDRVPIQLPSLEVLSEQEGDRDQGGVKDNESSSSIVFAELTPEKEKPFGESEVKNENNNLVSYTANLVVRNSSESESSIELQEDGLTDLSVRPVVRHQLPLGHSSELEGNFTSTDESSEGNLNLLGQTEVRYHLMLHIQMQLCELSLWDWITERNKRSREYVDEAACPYVMASVATKIFQELVEGVFYIHNMGIVHRDLKPRNIFLHGPDQQVKIGDFGLACADIIQNADWTNRNGKGTRTHTSRVGTCLYASPEQLEGSQYDAKSDMYSLGVILLELFQPFGTEMERATVLTGVRTGRIPESLSKRCPVQAKYIQLLTGRNVSQRPSALQLLQSELFQTTGNVNLTLQMKIIEQEKEIEELKKQLSLLSQDRGLKR

Variants of: B1
Conditions: with if2a_mouse Eif2s1, Q6ZWX6
Sequence of if2a_mouse Eif2s1, Q6ZWX6 (Q6ZWX6 whole entry): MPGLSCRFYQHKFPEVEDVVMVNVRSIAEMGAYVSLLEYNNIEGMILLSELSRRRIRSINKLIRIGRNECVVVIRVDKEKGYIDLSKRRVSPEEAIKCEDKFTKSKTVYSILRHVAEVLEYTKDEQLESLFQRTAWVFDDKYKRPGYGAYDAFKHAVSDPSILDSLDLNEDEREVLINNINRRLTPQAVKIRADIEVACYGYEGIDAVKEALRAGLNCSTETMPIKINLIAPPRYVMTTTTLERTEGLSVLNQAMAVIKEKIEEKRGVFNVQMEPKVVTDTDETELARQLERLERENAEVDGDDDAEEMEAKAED

| effect of a mutation on the interaction | Variant |
| --- | --- |
| disrupting interaction | T490A |

Variants of: B1
Conditions: with if2a_mouse Eif2s1, Q6ZWX6
Remark: another data set of the same source

| effect of a mutation on the interaction | Variant |
| --- | --- |
| decreasing interaction | H120A |
| decreasing interaction | H119A |

Variants of: B1
Conditions: with if2a_mouse Eif2s1, Q6ZWX6
Remark: another data set of the same source

| effect of a mutation on the interaction | Variant |
| --- | --- |
| decreasing interaction | T485A |

Variants of: B1
Conditions: with if2a_mouse Eif2s1, Q6ZWX6
Remark: another data set of the same source

| effect of a mutation on the interaction | Variant |
| --- | --- |
| disrupting interaction | K196R |

Variants of: B1
Conditions: with if2a_mouse Eif2s1, Q6ZWX6
Remark: another data set of the same source

| effect of a mutation on the interaction | Variant |
| --- | --- |
| disrupting interaction | S502A |

Variants of: B1
Conditions: with if2a_mouse Eif2s1, Q6ZWX6
Remark: another data set of the same source

| effect of a mutation on the interaction | Variant |
| --- | --- |
| decreasing interaction | Y193F |
